From patent publication US20140038892A1 come the findings set out here.

Sequence of FGFR3-IIIc (P22607 23-806): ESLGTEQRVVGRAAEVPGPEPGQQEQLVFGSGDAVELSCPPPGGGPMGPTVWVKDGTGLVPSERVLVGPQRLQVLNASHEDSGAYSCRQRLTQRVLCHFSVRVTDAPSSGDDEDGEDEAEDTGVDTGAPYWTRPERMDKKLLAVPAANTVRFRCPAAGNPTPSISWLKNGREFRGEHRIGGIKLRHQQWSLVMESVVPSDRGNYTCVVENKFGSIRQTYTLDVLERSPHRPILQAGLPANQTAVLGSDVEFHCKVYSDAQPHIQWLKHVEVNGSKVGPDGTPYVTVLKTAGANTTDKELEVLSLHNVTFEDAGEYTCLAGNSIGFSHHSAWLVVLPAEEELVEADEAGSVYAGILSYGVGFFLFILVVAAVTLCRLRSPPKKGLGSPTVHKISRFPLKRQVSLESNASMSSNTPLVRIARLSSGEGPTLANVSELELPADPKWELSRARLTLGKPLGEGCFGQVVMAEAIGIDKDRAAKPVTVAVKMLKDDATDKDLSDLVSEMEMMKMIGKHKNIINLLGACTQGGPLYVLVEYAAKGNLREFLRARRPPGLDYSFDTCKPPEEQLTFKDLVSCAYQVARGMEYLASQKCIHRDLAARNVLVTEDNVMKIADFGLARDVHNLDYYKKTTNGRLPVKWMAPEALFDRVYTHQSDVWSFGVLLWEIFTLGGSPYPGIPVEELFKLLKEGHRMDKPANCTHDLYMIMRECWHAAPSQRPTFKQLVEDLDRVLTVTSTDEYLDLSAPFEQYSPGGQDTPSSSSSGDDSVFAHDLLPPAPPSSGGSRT
Sequence of FGF18 - HA (234 Kd) conjugate (O76093 28-207 limits assumed): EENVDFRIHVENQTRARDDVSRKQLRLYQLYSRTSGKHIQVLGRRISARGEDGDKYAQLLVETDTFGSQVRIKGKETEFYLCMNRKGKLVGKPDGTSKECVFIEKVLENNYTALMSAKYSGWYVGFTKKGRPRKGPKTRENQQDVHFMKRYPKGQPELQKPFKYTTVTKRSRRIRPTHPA
Sequence of FGF18 w.t. (O76093 28-207 limits assumed): as above
Sequence of FGF-18 delta33 (O76093 other isoform, or with tags, fused parts or gaps mutant limits assumed): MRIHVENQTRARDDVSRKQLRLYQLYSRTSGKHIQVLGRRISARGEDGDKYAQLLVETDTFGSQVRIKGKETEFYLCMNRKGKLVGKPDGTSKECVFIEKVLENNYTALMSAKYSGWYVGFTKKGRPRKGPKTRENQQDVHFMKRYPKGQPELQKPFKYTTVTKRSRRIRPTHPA
Sequence of FGF18 Δ51 - HA (234 Kd) conjugate (O76093 52-207, tags or fused parts left off): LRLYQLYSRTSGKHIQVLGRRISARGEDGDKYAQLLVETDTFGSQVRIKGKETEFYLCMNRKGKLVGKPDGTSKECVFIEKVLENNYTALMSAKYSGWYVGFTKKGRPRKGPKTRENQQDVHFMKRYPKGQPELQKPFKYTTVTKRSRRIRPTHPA
Sequence of FGF18 Δ33 - HA (234 Kd) conjugate (O76093 34-207, tags or fused parts left off): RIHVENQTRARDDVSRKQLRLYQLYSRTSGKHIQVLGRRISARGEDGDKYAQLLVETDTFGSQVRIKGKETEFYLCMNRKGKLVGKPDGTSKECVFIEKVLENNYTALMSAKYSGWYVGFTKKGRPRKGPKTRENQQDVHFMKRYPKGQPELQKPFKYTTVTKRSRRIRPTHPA
Sequence of FGF-18 delta51 (O76093 other isoform, or with tags, fused parts or gaps mutant limits assumed): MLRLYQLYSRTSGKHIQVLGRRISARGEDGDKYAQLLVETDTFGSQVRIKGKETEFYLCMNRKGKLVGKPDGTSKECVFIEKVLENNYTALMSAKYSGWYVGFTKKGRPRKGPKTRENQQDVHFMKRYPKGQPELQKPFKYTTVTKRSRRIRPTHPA

This assay has as its target FGFR3-IIIc (UniProt P22607). Nature of the assay: cell-based or functional assay.
For the substance “FGF2 (from UniProt P09038 134-288) (ligand)”, the Mitogenic activity in FDCP cell lines assay (EC50) is 1 ng/mL and the Mitogenic activity, FGFR-transfected FDCP cell lines assay (EC50) was 1 ng/mL. In turn, “FGF2 - CMC (90 Kd) conjugate (from UniProt P09038 134-288) (ligand)” displayed a Mitogenic activity FDCP-R3 (EC50) below 3 ng/mL. “FGF2 - CMC (250 Kd) conjugate (from UniProt P09038 134-288) (ligand)” came in with a Mitogenic activity FDCP-R3 (EC50) below 3 ng/mL. “FGF2 - HA (17 Kd) conjugate (from UniProt P09038 134-288) (ligand)” showed a Mitogenic activity FDCP-R3 (EC50) below 3 ng/mL. For “FGF2 - HA (74 Kd) conjugate (from UniProt P09038 134-288) (ligand)”, the Mitogenic activity FDCP-R3 (EC50) was below 5 ng/mL. In turn, “FGF2 - HA (132 Kd) conjugate (from UniProt P09038 134-288) (ligand)” returned a Mitogenic activity FDCP-R3 (EC50) below 5 ng/mL. In turn, “FGF2 - HA (234 Kd) conjugate (from UniProt P09038 134-288) (ligand)” returned a Mitogenic activity FDCP-R3 (EC50) below 5 ng/mL.

On to “FGF2 conjugate with HA-hyd (10% hydrazido groups) - BMPS (from UniProt P09038 134-288) (ligand)”, for which the Mitogenic activity in FDCP cell lines assay, Conjugates EC50, +Hyaluronidase was below 5 ng/mL and the Mitogenic activity in FDCP cell lines assay, Conjugates EC50, -Hyaluronidase was above 20 ng/mL. In turn, “FGF2 conjugate with HA-hyd (10% hydrazido groups) - EMCS (from UniProt P09038 134-288) (ligand)” showed a Mitogenic activity in FDCP cell lines assay, Conjugates EC50, +Hyaluronidase below 5 ng/mL and a Mitogenic activity in FDCP cell lines assay, Conjugates EC50, -Hyaluronidase above 40 ng/mL.

In turn, “FGF2 conjugate with HA-hyd (10% hydrazido groups) - GMBS (from UniProt P09038 134-288) (ligand)” registered a Mitogenic activity in FDCP cell lines assay, Conjugates EC50, +Hyaluronidase below 5 ng/mL and a Mitogenic activity in FDCP cell lines assay, Conjugates EC50, -Hyaluronidase above 20 ng/mL. In the same order, the values of “FGF2 conjugate with HA-hyd (10% hydrazido groups) - SMPH (from UniProt P09038 134-288) (ligand)” are below 5 ng/mL and above 10 ng/mL. On to “FGF2 conjugate with HA-hyd (40% hydrazido groups) - BMPS (from UniProt P09038 134-288) (ligand)”, for which the Mitogenic activity in FDCP cell lines assay, Conjugates EC50, +Hyaluronidase was above 15 ng/mL and the Mitogenic activity in FDCP cell lines assay, Conjugates EC50, -Hyaluronidase is above 15 ng/mL. The substance “FGF2 conjugate with HA-hyd (40% hydrazido groups) - SMPH (from UniProt P09038 134-288) (ligand)” registered a Mitogenic activity in FDCP cell lines assay, Conjugates EC50, +Hyaluronidase below 5 ng/mL and a Mitogenic activity in FDCP cell lines assay, Conjugates EC50, -Hyaluronidase below 5 ng/mL. As to “FGF18 - HA (234 Kd) conjugate (from UniProt O76093 28-207) (ligand)”, the Mitogenic activity FDCP-R3 (EC50) is below 10 ng/mL.

Substance “FGF18 w.t. (from UniProt O76093 28-207) (ligand)” showed a Mitogenic activity, FGFR-transfected FDCP cell lines assay (EC50) of 5 ng/mL. Turning to “FGF18 Δ33 - HA (234 Kd) conjugate (from UniProt O76093 34-207) (ligand)”, the Mitogenic activity FDCP-R3 (EC50) is below 6.8 ng/mL.

In turn, “FGF18 Δ51 - HA (234 Kd) conjugate (from UniProt O76093 52-207) (ligand)” displayed a Mitogenic activity FDCP-R3 (EC50) below 12.5 ng/mL. “FGF-18 delta33 (from UniProt O76093 34-207) (ligand)” returned a Mitogenic activity, FGFR-transfected FDCP cell lines assay (EC50) of 3.5 ng/mL. The substance “FGF-18 delta51 (from UniProt O76093 52-207) (ligand)” came in with a Mitogenic activity, FGFR-transfected FDCP cell lines assay (EC50) of 5.5 ng/mL.
